Series [1] addresses human barrier-to-autointegration factor (BAF) with all cysteines mutated into alanine (human) (UniProt O75531). Briefly: crystal structure; ternary complex EmN T43I/BAF/lamin A/C Ig-fold at 5 mg/mL, a week at 4 °C (proteolysis to the LEM-domain); hanging drop at 4 °C, 18% PEG 3350, 100 mM Tris Bis pH 5.5, 0.1 M NH4SO4; molecular replacement; 2.3 Å.
Series [2] deals with the molecule itself. Kind of series: thioflavin T fluorescence (self-assembly kinetics); protein at 300 uM heated at 37 °C in 20 mM Tris HCl pH 8, 30 mM NaCl, 5 mM DTT; aliquots at 20 uM protein with 2.5 uM ThT read at 20 °C over 24 h.

Take “human barrier-to-autointegration factor (BAF) with all cysteines mutated into alanine (from UniProt O75531 1-89) (natural protein)”: the stoichiometry N (in general, the number of molecules, sites or subunits per partner or assembly) in series [1] stood at 2.

B1: human emerin fragment EmN (region 1-187), mutant ΔK37 (domain or fragment, UniProt P50402 1-187, looked up)
chain: MDNYADLSDTELTTLLRRYNIPHGPVVGSTRRLYEKIFEYETQRRRLSPPSSSAASSYSFSDLNSTRGDADMYDLPKKEDALLYQSKGYNDDYYEESYFTTRTYGEPESAGPSRAVRQSVTSFPDADAFHHQVHDDDLLSSSEEECKDRERPMYGRDSAYQSITHYRPVSASRSSLDLSYYPTSSS
notes: emerin, human, fragment EmN, residues 1-187, with the patient deletion ΔK37 (atrial cardiac defects); Made by site-directed mutagenesis from the EmN expression vector; also called EmN ΔK37; emerin ΔK37; not shown: His8, N-terminal, cleaved
In the case of B1, the binding result in series [2] is recorded as “binds”.

B2: human emerin fragment EmN (region 1-187), wild-type (domain or fragment, UniProt P50402 1-187, looked up)
chain: MDNYADLSDTELTTLLRRYNIPHGPVVGSTRRLYEKKIFEYETQRRRLSPPSSSAASSYSFSDLNSTRGDADMYDLPKKEDALLYQSKGYNDDYYEESYFTTRTYGEPESAGPSRAVRQSVTSFPDADAFHHQVHDDDLLSSSEEECKDRERPMYGRDSAYQSITHYRPVSASRSSLDLSYYPTSSS
notes: emerin, human, fragment EmN, residues 1-187 of the 254-residue protein (LEM-domain aa 1-45 and part of the disordered region); pETM-13 vector; also called wild-type EmN; EmN wild-type; not shown: His8, N-terminal, cleaved
On to B2, for which the binding result in series [2] was “binds”.

B3: human emerin fragment EmN (region 1-187), mutant T43I (domain or fragment, UniProt P50402 1-187, looked up)
chain: MDNYADLSDTELTTLLRRYNIPHGPVVGSTRRLYEKKIFEYEIQRRRLSPPSSSAASSYSFSDLNSTRGDADMYDLPKKEDALLYQSKGYNDDYYEESYFTTRTYGEPESAGPSRAVRQSVTSFPDADAFHHQVHDDDLLSSSEEECKDRERPMYGRDSAYQSITHYRPVSASRSSLDLSYYPTSSS
notes: emerin, human, fragment EmN, residues 1-187, with the patient mutation T43I (atrial cardiac defects); Made by site-directed mutagenesis from the EmN expression vector; also called EmN T43I; not shown: His8, N-terminal, cleaved
Consider B3, for which the binding result in series [2] is given as “binds”.

B4: human emerin fragment EmN (region 1-187), mutant P22L (domain or fragment, UniProt P50402 1-187, looked up)
chain: MDNYADLSDTELTTLLRRYNILHGPVVGSTRRLYEKKIFEYETQRRRLSPPSSSAASSYSFSDLNSTRGDADMYDLPKKEDALLYQSKGYNDDYYEESYFTTRTYGEPESAGPSRAVRQSVTSFPDADAFHHQVHDDDLLSSSEEECKDRERPMYGRDSAYQSITHYRPVSASRSSLDLSYYPTSSS
notes: emerin, human, fragment EmN, residues 1-187, with the patient mutation P22L (atrial cardiac defects); Made by site-directed mutagenesis from the EmN expression vector; also called EmN P22L; not shown: His8, N-terminal, cleaved
As for B4, the binding result in series [2] is reported as “binds”.

The values are drawn from publication PMC6628311, “An Emerin LEM-Domain Mutation Impairs Cell Response to Mechanical Stress” (Cells, 2019).
